{"source": "paper PMC4939007", "about": "“The GH51 α-L-arabinofuranosidase from Paenibacillus sp. THS1 is multifunctional, hydrolyzing main-chain and side-chain glycosidic bonds in heteroxylans” (Biotechnology for Biofuels, 2016)", "assay_in_all_cases": "purified protein", "key": {"[1]": {"tested_on": "O=[N+]([O-])c1ccc(O[C@@H]2OC[C@@H](O)[C@H](O)[C@H]2O)cc1", "details": "50 mM sodium phosphate pH 6.5, 1 mg/mL BSA, 60 °C, 0–40 mM substrate, authors' caution: maximum substrate below 2 x KM"}, "[2]": {"tested_on": "O=[N+]([O-])c1ccc(O[C@@H]2O[C@@H](CO)[C@H](O)[C@H]2O)cc1", "details": "50 mM sodium phosphate pH 6.5, 1 mg/mL BSA, 60 °C, 0–5 mM substrate"}, "[3]": {"tested_on": "O=[N+]([O-])c1ccc(O[C@@H]2O[C@@H]([C@H](O)CO)[C@H](O)[C@H]2O)cc1", "details": "50 mM sodium phosphate pH 6.5, 1 mg/mL BSA, 60 °C, 0–14 mM substrate, authors' caution: maximum substrate below 2 x KM"}}}
{"substance": "THSAbf (Paenibacillus sp. HanTHS1)", "values": [{"measurement": "Km", "setting": "[1]", "value": "23.8 ± 4.1", "unit": "mM"}, {"measurement": "kcat", "setting": "[1]", "value": "10.6 ± 0.9", "unit": "s⁻¹"}, {"measurement": "kcat/Km", "setting": "[1]", "value": 440, "unit": "M⁻¹ s⁻¹"}, {"measurement": "Km", "setting": "[2]", "value": "0.31 ± 0.1", "unit": "mM"}, {"measurement": "kcat", "setting": "[2]", "value": "328 ± 23", "unit": "s⁻¹"}, {"measurement": "kcat/Km", "setting": "[2]", "value": "1.05e+06", "unit": "M⁻¹ s⁻¹"}, {"measurement": "Km", "setting": "[3]", "value": "8.6 ± 0.9", "unit": "mM"}, {"measurement": "kcat", "setting": "[3]", "value": "327 ± 20", "unit": "s⁻¹"}, {"measurement": "kcat/Km", "setting": "[3]", "value": 38000, "unit": "M⁻¹ s⁻¹"}]}
